These results are taken from publication PMC9564178 (Cells, 2022).

In experiment [1] the target is T1, human recombinant TPPP1 (hexaHis fusion) (human, UniProt O94811 1-219).
T1 construct: human TPPP1 (Tubulin Polymerization Promoting Protein, TPPP/p25), UniProtKB O94811, 219 amino acids; probably the whole 219-residue protein; also called TPPP/p25; source: E. coli BL21 (DE3), isolated on a HIS-Select Cartridge
Description: ELISA; TPPP3 immobilised (5 μg/mL, PBS); recombinant TPPP1 added at different concentrations, without HeLa extract; detected by monoclonal TPPP1 antibody; apparent Kd, single-site hyperbola. As to conditions: both partners purified.

For experiment [2], the target named is T1, human recombinant TPPP1 (hexaHis fusion). As to the kind of experiment: ELISA; TPPP3 immobilised; recombinant TPPP1 added at different concentrations with extract of non-transfected HeLa cells (0.32 mg/mL); detected by monoclonal TPPP1 antibody; apparent Kd. The conditions noted are these: both partners purified.

T1 sequence (O94811 whole entry, the tested form may be a part): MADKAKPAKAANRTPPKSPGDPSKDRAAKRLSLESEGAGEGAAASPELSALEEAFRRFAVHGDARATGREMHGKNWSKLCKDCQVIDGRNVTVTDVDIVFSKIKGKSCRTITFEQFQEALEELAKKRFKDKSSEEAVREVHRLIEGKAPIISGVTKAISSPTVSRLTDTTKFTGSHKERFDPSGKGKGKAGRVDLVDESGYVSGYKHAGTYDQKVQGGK

B1: human recombinant TPPP3 (hexaHis fusion) (natural protein)
chain: AGLEESFRKFAIHGDPKASGQEMNGKNWAKLCKDCKVADGKSVTGTDVDIVFSKVKGKSARVINYEEFKKALEELATKRFKGKSKEEAFDAICQLVAGKEPANVGVTKAKTGGAVDRLTDTSRYTGSHKERFDESGKGKGIAGRQDILDDSGYVSAYKNAGTYDAKVKK
notes: human TPPP3 (Tubulin Polymerization Promoting Protein 3), UniProtKB Q9BW30, 176 amino acids; probably the whole 176-residue protein; also called TPPP/p20; source: E. coli BL21 (DE3), isolated on a HIS-Select Cartridge
Turning to B1, the figures for the Kd in experiment [1] and in experiment [2] were 6.53 nM and 47.7 nM, respectively.
